The conditions of this data set: Saccharomyces cerevisiae (strain ATCC 204508 / S288c), pH 7, 30 °C, Urea, Fluorescence, Potassium phosphate 50 mM.

Chain of Cytochrome c isoform 1 D96C|C108T, P00044 D96C C108T (P00044 whole entry D96C/C108T, canonical isoform): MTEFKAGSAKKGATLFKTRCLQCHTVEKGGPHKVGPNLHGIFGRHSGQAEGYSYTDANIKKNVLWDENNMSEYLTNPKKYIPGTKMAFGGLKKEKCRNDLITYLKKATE
Chain of Cytochrome c isoform 1 C108T, P00044 (P00044 whole entry C108T, canonical isoform): as the sequence (P00044 whole entry D96C/C108T, canonical isoform) above, with C96D counted along it
Chain of Cytochrome c isoform 1 wild type, P00044 (P00044 whole entry, canonical isoform): as the sequence (P00044 whole entry D96C/C108T, canonical isoform) above, with C96D, T108C counted along it
Chain of Cytochrome c isoform 1 R19C|C108T, P00044 R19C C108T (P00044 whole entry R19C/C108T, canonical isoform): as the sequence (P00044 whole entry D96C/C108T, canonical isoform) above, with R19C, C96D counted along it

Consider “Cytochrome c isoform 1 D96C|C108T, P00044 D96C C108T”, for which, under “structure 1YCC”, the “ddG of mutation (higher = less stable)” value was -0.91 kcal/mol, the denaturant m value turned out to be 1.2 kcal/mol/M, the “denaturant midpoint (higher = more stable)” value (from here on “denaturant midpoint”) worked out at 2.8 M and the unfolding free energy came to 3.3 kcal/mol.

In the case of Cytochrome c isoform 1 C108T, P00044, for the setting “structure 1YCC”, the “ddG of mutation (higher = less stable)” value was -4.09 kcal/mol, the denaturant m value was determined as 1.79 kcal/mol/M, the “denaturant midpoint” value amounted to 3.6 M and the unfolding free energy was determined as 6.48 kcal/mol.

Turning to “Cytochrome c isoform 1 wild type, P00044”, the denaturant m value amounted to 0.91 kcal/mol/M, the “denaturant midpoint” value was 2.6 M and the unfolding free energy turned out to be 2.39 kcal/mol.

In the case of “Cytochrome c isoform 1 R19C|C108T, P00044 R19C C108T”, under “structure 1YCC”, the “ddG of mutation (higher = less stable)” value was -4.21 kcal/mol, the denaturant m value is 1.79 kcal/mol/M, the “denaturant midpoint” value turned out to be 3.7 M and the unfolding free energy was found to be 6.6 kcal/mol.

(Values after FireProtDB (doi:10.1111/j.1432-1033.1994.tb18977.x).)
